The source of these data is article PMC2952221.

The experiment deals with 40 S ribosomal subunit, wild type (RDN+) (S. cerevisiae (endogenous in NOY908)) (UniProt P32905). Nature of the experiment: co-sedimentation.
Sequence of UniProt P32905 (P32905 whole entry, looked up, tested part not stated): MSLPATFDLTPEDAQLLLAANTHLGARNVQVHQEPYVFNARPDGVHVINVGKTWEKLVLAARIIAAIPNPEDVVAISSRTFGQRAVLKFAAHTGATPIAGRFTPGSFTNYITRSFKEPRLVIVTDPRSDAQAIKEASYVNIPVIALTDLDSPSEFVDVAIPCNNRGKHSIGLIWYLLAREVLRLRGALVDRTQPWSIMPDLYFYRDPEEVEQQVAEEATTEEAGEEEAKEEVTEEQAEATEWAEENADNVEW

As for “eIF2 (heterotrimeric factor) (from UniProt P20459 1-304; P09064 1-285; P32481 1-527) (complex)”, the percent of the factor loaded on free 40 S subunits is less than 5%.

In the case of “eIF3 (from UniProt P38249 1-964; Q04067 1-274) (complex)”, the percent of the factor loaded on free 40 S subunits was less than 5%.

Take “eIF5 (from UniProt P38431 1-405) (natural protein)”: the percent of the factor loaded on free 40 S subunits is less than 5%.
